From US20110182911A1 (published 2011)

B1: recombinant mouse Noggin (other, UniProt P97466 28-232, looked up)
chain: QHYLHIRPAPSDNLPLVDLIEHPDPIFDPKEKDLNETLLRSLLGGHYDPGFMATSPPEDRPGGGGGPAGGAEDLAELDQLLRQRPSGAMPSEIKGLEFSEGLAQGKKQRLSKKLRRKLQMWLWSQTFCPVLYAWNDLGSRFWPRYVKVGSCFSKRSCSVPEGMVCKPSKSVHLTVLRWRCQRRGGQRCGWIPIQYPIISECKCSC

Columns and labels:
[1] = target: recombinant human BMP-4 (human) (UniProt P12644); experiment: cell-based or functional assay
recombinant human BMP-2 = recombinant human BMP-2 (human, UniProt P12643 283-396); experiment: cell-based or functional assay
Sequence of recombinant human BMP-2 (P12643 283-396 limits assumed): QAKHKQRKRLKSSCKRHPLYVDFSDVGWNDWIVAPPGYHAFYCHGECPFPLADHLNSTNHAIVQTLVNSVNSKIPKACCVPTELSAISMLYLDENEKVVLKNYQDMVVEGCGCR

Sequence of recombinant human BMP-4 (human) (P12644 293-408 limits assumed): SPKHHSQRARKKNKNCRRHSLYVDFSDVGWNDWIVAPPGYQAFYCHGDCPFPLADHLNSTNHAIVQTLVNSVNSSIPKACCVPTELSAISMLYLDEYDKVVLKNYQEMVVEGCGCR

Row | Molecule | alkaline phosphatase (ALP) activity in C2C12 cells; molar ratio of antagonist to BMP at which the BMP-induced increase is completely inhibited (molar ratio (bAHSG:rhBMP-4)) [1] | alkaline phosphatase (ALP) activity in C2C12 cells; molar ratio of antagonist to BMP at which the BMP-induced increase is completely inhibited (molar ratio (fetuin:rhBMP-4)) [1] | alkaline phosphatase (ALP) activity in C2C12 cells; molar ratio of antagonist to BMP at which the BMP-induced increase is completely inhibited (recombinant human BMP-2)
1 | bovine fetuin (from UniProt P12763 19-359) | > 56800 | > 55000 | –
2 | B1 | – | – | 1.1 molar ratio (rmNGN:rhBMP-2)
